For five substances, stoichiometry N results are on record in paper PMC8310366.

Experiment [1] addresses DENV NS1 S233A mutant (dengue virus serotype 2 (DENV-2, strain 16681)). Briefly: SDS-PAGE under non-heated, non-reduced conditions with immunoblotting. A general note: Immunoblotting shows a protein as a band on a membrane.
Experiment [2] deals with DENV NS1 T29A mutant (dengue virus serotype 2 (DENV-2, strain 16681)). The experiment is described as above.
Experiment [3] concerns the target DENV NS1 T230A mutant (dengue virus serotype 2 (DENV-2, strain 16681)). The description is as above.
In experiment [4] the target is DENV NS1 V6A mutant (dengue virus serotype 2 (DENV-2, strain 16681)). The experiment is described as above.
Experiment [5] addresses Dengue virus serotype 2 nonstructural protein 1 (DENV NS1), wild type (dengue virus serotype 2 (DENV-2, strain 16681)). Description: SDS-PAGE under non-heated, non-reduced conditions with Coomassie staining.
The target is the same in experiment [6]. Briefly: SDS-PAGE under non-heated, non-reduced conditions with immunoblotting.

What is called stoichiometry N is a count of units in the complex or per binding partner. Substance DENV NS1 S233A mutant (natural protein) displayed a stoichiometry N in experiment [1] of 2. Consider DENV NS1 T29A mutant (natural protein), for which the stoichiometry N in experiment [2] is 2.

Take DENV NS1 T230A mutant (natural protein): the stoichiometry N in experiment [3] was determined as 2. In experiment [4], DENV NS1 V6A mutant (natural protein) returned a stoichiometry N of 2.

In the case of “Dengue virus serotype 2 nonstructural protein 1 (DENV NS1), wild type (natural protein)”, the stoichiometry N in experiment [5] and in experiment [6] was 2 in each case.
